Article PMC10433963

Key:
[1] = target: ^H7-SUMOClpC1^FLAG (recombinant ClpC1) (M. smegmatis) (UniProt A0R574)
[2] = target: ^H7-SUMOClpC1^FLAG (recombinant ClpC1) (M. smegmatis) (UniProt A0R574); remark: listed apart in the source

Chain of ^H7-SUMOClpC1^FLAG (recombinant ClpC1) (M. smegmatis) (A0R574 whole entry): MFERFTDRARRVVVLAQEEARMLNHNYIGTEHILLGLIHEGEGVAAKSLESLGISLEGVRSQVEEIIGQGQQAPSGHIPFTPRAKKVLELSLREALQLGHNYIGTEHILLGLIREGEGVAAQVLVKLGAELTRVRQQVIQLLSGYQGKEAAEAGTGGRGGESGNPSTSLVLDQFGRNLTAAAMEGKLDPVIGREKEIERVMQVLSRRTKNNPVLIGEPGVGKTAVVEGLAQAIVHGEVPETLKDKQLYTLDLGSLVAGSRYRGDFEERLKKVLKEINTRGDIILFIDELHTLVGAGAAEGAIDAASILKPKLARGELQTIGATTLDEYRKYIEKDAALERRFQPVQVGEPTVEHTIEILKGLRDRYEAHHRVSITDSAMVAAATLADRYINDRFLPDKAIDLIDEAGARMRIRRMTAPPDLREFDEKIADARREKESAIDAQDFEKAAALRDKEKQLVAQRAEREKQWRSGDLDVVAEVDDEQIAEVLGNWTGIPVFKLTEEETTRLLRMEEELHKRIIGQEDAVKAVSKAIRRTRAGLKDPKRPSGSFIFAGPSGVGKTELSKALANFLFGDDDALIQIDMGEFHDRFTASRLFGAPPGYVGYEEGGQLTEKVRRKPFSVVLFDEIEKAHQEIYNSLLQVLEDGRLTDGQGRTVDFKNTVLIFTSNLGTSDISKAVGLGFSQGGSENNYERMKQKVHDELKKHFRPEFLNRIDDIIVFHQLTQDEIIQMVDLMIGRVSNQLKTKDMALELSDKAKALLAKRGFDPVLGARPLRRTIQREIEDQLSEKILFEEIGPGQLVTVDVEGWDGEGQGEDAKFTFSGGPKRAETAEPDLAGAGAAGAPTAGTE

| Km of degradation by ClpC1P1P2, loss of GFP fluorescence, Michaelis-Menten analysis [1] | Km of degradation by 1 uM ClpC1P1P2, loss of GFP fluorescence, Michaelis-Menten analysis [1] | Substance | also measured |
| --- | --- | --- | --- |
| 5.97 µM | – | GFP appended with the last 13 residues of MSMEI_3879 | – |
| 19.1 µM | – | GFP preceded by the first 13 residues of MSMEI_3879 | – |
| – | 18.8 µM | GFP^MSMEI_3879 (MSMEI_3879 fused to the C terminus of GFP) | – |
| – | – | MSMEI_3879 (recombinant) (natural protein) | degradation of 10 uM MSMEI 3879 by 1 uM ClpC1 and 1 uM ClpP1P2 in vitro, SDS-PAGE densitometry, protein hydrolyzed within 40 min [2]: 75% |
| – | 2.06 µM | ^MSMEI_3879GFP (MSMEI_3879 fused to the N terminus of GFP) | – |
